Tests used:
[1] = target: T1, CD28.OX40.z; assay: flow cytometry of transduced T cells stained with IL13Rα2Fc and secondary antibody, axis labelled CAR
T1 construct: also called M47 IL13Ra2 - SH - TM - CD28 - OX40 - ζ-chain CAR on T cells

[2] = target: T2, *41BB.z; assay: as above
T2 construct: also called M47 IL13Ra2 - SH - TM* (CD8a) - 41BB - ζ-chain CAR on T cells

[3] = target: T3, recombinant human IL13Rα1hFc chimera (human, UniProt P78552 27-343, limits assumed); assay: plate-bound ELISA on IL13Rα1hFc
T3 construct: Bought from R&D Systems; also called rhIL13Rα1; hrIL13Rα1; not shown: human Fc (hFc) of the purchased chimera
T3 sequence (looked up): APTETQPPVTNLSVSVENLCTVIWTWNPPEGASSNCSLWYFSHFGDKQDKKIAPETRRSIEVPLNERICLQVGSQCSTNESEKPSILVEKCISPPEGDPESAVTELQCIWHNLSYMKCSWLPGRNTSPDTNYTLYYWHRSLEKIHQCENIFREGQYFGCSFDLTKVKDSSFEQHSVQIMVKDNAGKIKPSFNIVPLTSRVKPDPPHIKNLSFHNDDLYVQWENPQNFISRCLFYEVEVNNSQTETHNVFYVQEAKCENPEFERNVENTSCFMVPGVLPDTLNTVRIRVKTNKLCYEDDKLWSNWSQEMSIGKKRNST

[4] = target: T4, recombinant mouse IL13Rα2hFc chimera (mouse, UniProt O88786 22-334, limits assumed); assay: plate-bound ELISA on mouse rIL13Rα2hFc
T4 construct: Bought from R&D Systems; also called mouse rIL13Rα2; mouse recombinant IL13Rα2; not shown: human Fc (hFc) of the purchased chimera
T4 sequence (looked up): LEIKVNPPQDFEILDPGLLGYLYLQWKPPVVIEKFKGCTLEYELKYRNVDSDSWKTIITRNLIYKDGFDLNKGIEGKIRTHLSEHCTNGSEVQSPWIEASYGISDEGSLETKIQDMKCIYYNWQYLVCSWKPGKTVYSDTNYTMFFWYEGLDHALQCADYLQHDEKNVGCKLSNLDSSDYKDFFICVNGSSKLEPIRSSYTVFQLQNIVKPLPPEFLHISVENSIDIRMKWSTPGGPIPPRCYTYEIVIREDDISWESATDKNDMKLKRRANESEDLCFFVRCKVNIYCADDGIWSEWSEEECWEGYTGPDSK

B1: recombinant human IL13Rα2hFc chimera (Fc fusion, UniProt Q14627 27-343, looked up)
chain: DTEIKVNPPQDFEIVDPGYLGYLYLQWQPPLSLDHFKECTVEYELKYRNIGSETWKTIITKNLHYKDGFDLNKGIEAKIHTLLPWQCTNGSEVQSSWAETTYWISPQGIPETKVQDMDCVYYNWQYLLCSWKPGIGVLLDTNYNLFYWYEGLDHALQCVDYIKADGQNIGCRFPYLEASDYKDFYICVNGSSENKPIRSSYFTFQLQNIVKPLPPVYLTFTRESSCEIKLKWSIPLGPIPARCFDYEIEIREDDTTLVTATVENETYTLKTTNETRQLCFVVRSKVNIYCSDDGIWSEWSDKQCWEGEDLSKKTLLR
notes: Bought from R&D Systems; also called rhIL13Rα2hFc; rhIL13Rα2; not shown: human Fc (hFc) of the purchased chimera
binding result [1]: binds
binding result [2]: binds

B2: IL13Rα2 (clone 47) mAb (antibody, V domains shown)
VH: QVQLQQPGAELVRPGASVKLSCKASGYTFSNYLMNWVKQRPEQDLDWIGRIDPYDGDIDYNQNFKDKAILTVDKSSSTAYMQLSSLTSEDSAVYYCARGYGTAYGVDYWGQGTSVTVSS
VL: not shown
notes: Mouse hybridoma antibody; mIgG1 was used as isotype control; also called mAb47; m47
binding result [3]: no binding (tested: 4 µg/ml)
binding result [4]: no binding
